Source: patent US20170052184A1 (published 2017)

What was measured:
[1] = biological target: T1, HCV bt-141-161 (Peptide 2, HCVc 141-161) (Hepatitis C virus (numbering per HCV-1), biotin (carboxy-terminal per; N-terminal per)); assay: EIA, captured mAb + biotin peptide
T1 peptide: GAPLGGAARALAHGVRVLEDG

[2] = biological target: T2, HCV bt-151-171 (Peptide 3, HCVc 151-171) (Hepatitis C virus (numbering per HCV-1), biotin (carboxy-terminal per; N-terminal per)); assay: EIA, captured mAb + biotin peptide
T2 peptide: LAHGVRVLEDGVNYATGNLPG

[3] = biological target: T3, HCV bt-134-154 (Peptide 1, HCVc 134-154) (Hepatitis C virus (numbering per HCV-1), biotin (carboxy-terminal per; N-terminal per)); assay: EIA, captured mAb + biotin peptide
T3 peptide: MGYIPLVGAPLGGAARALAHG

[4] = biological target: T4, HCV Core 134-171-TT Peptide (hepatitis C virus (HCV-1 numbering) …); assay: SPR, captured mAb, peptide analyte
T4 construct: also called ALRZ-9 peptide

| Binder | Reactivity (OD 492 nm) [1] [OD units] | Reactivity (OD 492 nm) [2] [OD units] | Reactivity (OD 492 nm) [3] [OD units] | Kd [4] [nM] | koff [4] [s⁻¹] | kon [4] [M⁻¹ s⁻¹] |
| --- | --- | --- | --- | --- | --- | --- |
| HCV 208B-1096 (antibody, V domains shown) VH: QVQLQQSGAGLAKPGASVKMSCKASGYTFTANKMHWAKQRPGQGLEWIGYIDPSSGYTEYNHKIQYKATLTADTSSSTAYMQLSTLTFEDSAVYYCTNFAYWGQGTLVTVSA VL: DIVMTQTPLTLSVTIGQPASISCKSSQSLLFTNGKTYLNWFLQRPGQSPKRLIYLLSKLDSGVPDRFSGSGSGTDFTLKISRVEAEDLGVYYCLQSTYFPLTFGAGTKLELKR | 0.13 | 3.56 |  |  |  |  |
| HCV 208A-1064 (antibody, V domains shown) VH: EVQLQQSGPELVKPGASVKISCKTSGYTFTEYAMHWMKQSHGKSLEWIGGINPTNGDTIYNQKFKDKAKLTVDRSSSTAYMELRSLTSDDSALFYCARRELDYFASWGQGTTLTVSS VL: DIVLTQSPASLIVSLGQTATISCRASQSVSTSRFSYLHWIQQKPGQPPKLLIKYASNLESGVPVRFSGSGSGTDFTLNIHPVEEEDTATYFCQHSWEFPFTFGSGTKLKIKR | 3.5 | 0.12 | 0.1 |  |  |  |
| HCV 208A-920 (antibody, V domains shown) VH: not shown VL: DIVLTQSPASLAVSLGQRATISCRASQSVSTSRYSYMHWYQQKPGQPPKLLIKYASNLESGVPARFSGSGSGTDFTLNIHPVAEEDTAAYYCQHSWEFPFTFGSGTKLEIKR | 4 | 0.08 | 0.17 |  |  |  |
| HCV 208A-293 (antibody, V domains shown) VH: EVQLQQSGPELVKPGASVKISCKASGFTFTEYAMHWMKQSHGKSLEWIGGINPTNGDAIYNQKFKDKAKLTVDRSSSTAYMELRSLTSDDSALFYCARRELDYFPSWGQGTTLTVSS VL: DIVLTQSPASLIVSLGQRATISCRASQSVSTSRFSYVHWIQQKPGQPPKLLIKYASNLESGVPVRFSGSGSGTDFILNIHPVEEEDTATYFCQHSWEFPFTFGSGTKLEIKR | 2.42 | 0.11 | 0.08 |  |  |  |
| HCV 208A-159 (antibody, V domains shown) VH: QLQQSGPAQVKPGASVMISCKTSGYTFTENAMHWVKQSHGKSLEWIGGVNPNNGDTIFNQKFKDKAALTVDKSSSTAFMELRSLTSEESTVYYCVRRELDFFDYWGQGTSVTVSS VL: DIVLTQSPASLAVSLGQRATISCRASQSVSTSRYSYVHWYQQKPGQPPKLLIKYAANLESGVPARFSGSGSGTDFTLNIHPVAEEDAAAYYCQHSWEFPFTFGSGTKLEIKR | 3.77 | 0.19 | 0.15 |  |  |  |
| HCV 208B-556 (antibody, V domains shown) VH: QLQQSGPVLVKPGASVMISCKTSGYTFTENAMHWVKQSHGKSLEWIGGVNPNNGDTIFNQKFKGKATLTVDKSSSTAFMEFRSLTSEESTVYYCVRRELDFFDYWGQGTSVTVSS VL: DIVLTQSPASLAVSLGQRATISCRASQSVSTSRYSYMHWYQQKPGQPPKLLIKYASNLESGVPARFSGSGSGTDFTLNIHPVAEEDTATYYCQHSWEFPFTFGSGTKLEIKR | 3.07 | 0.18 | 0.13 |  |  |  |
| HCV 208A-110 (antibody, V domains shown) VH: not shown VL: DIVLTQSPASLAVSLGQRATISCRASQSVSTSRYSYMHWYQQKPGQPPKLLIKYASNLESGVPARFSGSGSGTDFTLNIHPVAEEDTAAYYCQHSWEFPFTFGSGTKLEIKR | 2.88 | 0.11 | 0.07 |  |  |  |
| HCV 208A-133 (antibody, V domains shown) VH: QLQQSGPVLVGPGASVMISCKTSGYTFTENAMHWVEQSHGKSLEWIGGVNPNNGDTIFNQKFKGKATLTVDKSSSTAFMEFRSLTSEESTVYYCVRRELDFFDYWGQGTSVTVSS VL: DIVLTQSPASLAVSLGQRATISCRASQSVSTSRYSYMHWYQQKPGQPPKLLIKYASNLESGVPARFSGSGSGTDFTLNIHPVAEEDTATYYCQHSWEFPFTFGSGTKLEIKR | 3.68 | 0.13 | 0.1 |  |  |  |
| HCV 208A-741 (antibody, V domains shown) VH: QLQQSGPVLVKPGASVMISCKTSGYTFTENAMHWVKQSHGKSLEWIGGVNPNNGDTIFNQKFKGKATLTVDKSSSTAFMELRSLTSEESTVYYCVRRELDFFDYWGQGTSVTVSS VL: DIVLTQSPASLAVSLGQRTTISCGASQSVSTSRFSYMHWYQQKPGQPPKLLIKYASNLESGVPARFSGSGSGTDFTLNIHPVAEEDTAAYYCQHSWEFPFTFGSGTKLEIKR | 3.37 | 0.06 | 1.2 |  |  |  |
| HCV 208B-1094 (antibody, V domains shown) VH: EVQLQQSGPELVKPGASVKISCKTSGYTFTEYAMHWMKQSHGKSLEWIGGINPTNGDTIYNQRFKDKAKLTVDRSSSTAYMELRSLTSDDSALFYCARRELDYFASWGQGTTLTVSS VL: DIVLTQSPASLIVSLGQTATISCRASQSLSTSRFSYVHWIQQKPGQPPKLLIKYASNLESGVPVRFSGSGSGTDFTLNIHPVEEEDTATYFCQHSWEFPFTFGSGTKLKIKR | 3.28 | 0.13 | 0.12 |  |  |  |
| HCV 208A-126 (antibody, V domains shown) VH: QLQQSGPVLVKPGASVMISCKTSGYTFTENAMHWVKQSHGKSLEWIGGVNPNNGDTIFNQKFKGKATLTVDKSSNTAFTELRSLPSEESTVYYCVRRGLDFFDYWGQGTSVTVSS VL: DIVLTQSPASLAVSLGQRATISCRASQSVSTSRYSYMHWYQQKPGQPPKLLIKYASNLESGVPARFSGSGSGTDFTLNIHPVAEEDTAAYYCQHSWEFPFTFGSGTKLEIKR | 2.08 | 0.1 | 0.2 |  |  |  |
| HCV 208A-334 (antibody, V domains shown) VH: not shown VL: DIVLTQSPASLAVSLGQRATISCRASQSVSTSRYSYMHWYQQKPGQPPKLLIKYASNLESGVPARFSGSGSGTDFTLNIHPVAEEDTAAYYCQHSWGFPFTFGSGTKLEIKR | 3.07 | 0.05 | 0.05 |  |  |  |
| HCV 208B-251 (antibody, V domains shown) VH: QLQQSGPVLVKPGASVKISCKTSGYTFTENAMHWVKQSHGKSLEWIGGVNPNNGDTIYNQKFKGKATLTVDKSSSTAFMELRSLTSEESPVYFCVRRELDFFDYWGQGTSVTVSS VL: DIVLTQSPASLAVSLGKKATISCRASQSVSTSRYSYMHWYQQKPGHPPKLLIKYASNLESGVPARFSGSGSGTDFTLNIHPVAEEDTAAYYCQHSWEFPFTFGSGTKLEIKR | 2.35 | 0.41 | 0.11 |  |  |  |
| HCV 208B-174 (antibody, V domains shown) VH: EVKLEESGGGLVQPGGSMKLSCVASGFSFSSYWMSWVRQSPEKGLDWVAEIRLRSDNYATHYAESVKGRFTISRDDSISRLYLQMNTLRAEDTGIYYCTWMTYWGQGTLVTVSA VL: QNVLTQSPAIMSASPGEKVTMSCSASSSVTYMFWYQLKPESSPRLLIYDTSNLASGVPVRFSGSGSGTSYSLTISRMEAEDAATYYCQEWSSYPLTFGAGTKLDLKR |  |  |  | 0.25 | 0.00018 | 760000 |
| HCV 208A-352 (antibody, V domains shown) VH: QGQMQQSGAELVKPGASVKLSCKTSGFTFSSSFISWLKQKPGQSLEWIAWIYAGTGNTNYNQKFTDKAQLTVDTSSSTAYMQFSSLTTEDSAIYYCAISGTGFTYWGQGTLVTVSA VL: DVLMAQTPLSLPVTLGDQASISCRSSQSLVHSNGNTYLEWFLQKPGQSPKLLIYNVSNRFSGVPDRFSGSGSGTDFTLKISRVEAEDLGVYYCFQGSHVPLTFGSGTKLEIKR | 0.07 | 0.06 | 1.08 |  |  |  |
| HCV 208B-471 (antibody, V domains shown) VH: QGQLQQSGPVLVKPGASEILYCKTSGFTFSSTYISWLKQKPGQSLEWIAWIYAGTGATNYNQKFTGKAQLTVDASSNTAYMHFSGLTPEDSAIYYCAISGAGVYWGQGTLVTVSA VL: DVVMTQTPLSLPVSLGDQASISCRSSQSLLHSNGNTYLEWYLQKPGQSPNLLIYNVSNRFSGVPDRFSGSGSGTDFALKISRVGAEDLGVYYCFQGSHVPLTFGAGTKLELKR |  |  |  | 0.25 | 5.5e-05 | 220000 |
| HCV 208A-983 (antibody, V domains shown) VH: QGQMQQSGAELVKPGASVKLSCKTSGFTFSSSYFSWLKQKPGQSLEWIAWIYAGTGNTIYNQKFTDKAQLTVDTASSTAFMQLSSLTIEDSAIYYCAISGTGFTYWGQGTLVTVSA VL: DVLMTQTPLSLPVNLGDQASISCRSSQSLLHSNGNTYLEWFLQKPGQSPKLLIYNVSNRFSGVPDRFSGSGSGTDFTLKISRVEAEDLGVYYCFQGSHVPFTFGSGTKLAIKR |  |  |  | 0.46 | 4.6e-05 | 97000 |
| HCV 208A-692 (antibody, V domains shown) VH: QGQMQQSGAELAKPGASVKLSCKTSGFTFSSSYISWLKQKPGQSLEWIAWIFAGTGNTNYNQKFTDKAQLTVDTSSSTAYMQLSSLTTEDSAIYYCAISGTGFTYWGQGTLVTVSA VL: EVLMTQSPLSLPVSLGDQASISCRSSQSLEHSNGNTYLEWFLQRPGQPPKLLIYKVSSRFSGVPDRFSGSGSGTDFTLKISRVEAEDLGVYYCFQGSHVPFTFGSGTKLAIKR |  | 0.07 | 3.67 |  |  |  |
| HCV 208B-408 (antibody, V domains shown) VH: EVKLVESGGGLVQPGGSLRLSCASSGFTFTDYYMSWVRQPPGKALEWLGFIRNKAYGYTTEFSASVNGRFTISRDDSQSVPYLQMNTLRAEDSATYYCARVLYYDYGGFAYWGQGTLVTVST VL: DIQMTQSPASLSASVGETVTITCRASGNIHTYLAWYQQKQGKSPQLLVYNANTLADGVPSRFSGSGSGTQFSLKINSLQPDDFGSYYCQHFWSAPWTFGGGTQLEIKR |  | 0.16 | 0.81 |  |  |  |
